Measured values from US20070248613A1 (MERCK, published 2007).
Values joined by “and” are separate entries in the source; they are usually repeats but may differ in a detail not shown here. Identical values can stand only once.

B1: D5 IgG (antibody, V domains shown)
VH: QVQLVQSGAEVRKPGASVKVSCKASGDTFSSYAISWVRQAPGQGLEWMGGIIPIFGTANYAQKFQGRVTITADESTSTAYMELSSLRSEDTAIYYCARDNPTLLGSDYWGKGTLVTVSS
VL: DIQMTQSPSTLSASIGDRVTITCRASEGIYHWLAWYQQKPGKAPKLLIYKASSLASGAPSRFSGSGSGTDFTLTISSLQPDDFATYYCQQYSNYPLTFGGGTKLEIK
notes: also called D5 IgG4; D5 antibody
B2: 5H/I1-BMV-D5 scFv (scFv)
scFv: QVQLVQSGAEVRKPGASVKVSCKASGDTFSSYAISWVRQAPGQGLEWMGGIIPIFGTANYAQKFQGRVTITADESTSTAYMELSSLRSEDTAIYYCARDNPTLLGSDYWGKGTLVTVSSGGGGSGGGGSGGGGSDIQMTQSPSTLSASIGDRVTITCRASEGIYHWLAWYQQKPGKAPKLLIYKASSLASGAPSRFSGSGSGTDFTLTISSLQPDDFATYYCQQYSNYPLTFGGGTKLEIK
notes: also called scFv D5
B3: 5H/I1-BMV-B11 scFv (scFv)
scFv: QVQLVQSGAEVKKPGSSVKVSCKASGGTFSSYAISWVRQAPGQGLEWMGGIIPLFDTSNYAQNFQGRITITADKSTSTAYMELSSLRFEDTAIYYCARDNPLLLAMDVWGKGTTVTVSSGGGGSGGGGSGGGGSDIQMTQSPSTLSASIGDRVTITCRASEGIYHWLAWYQQKPGKAPKLLIYKASSLASGAPSRFSGSGSGTDFTLTISSLQPDDFATYYCQQYSNYPLTFGGGTKLEIK
notes: also called scFv B11

Legend:
5-Helix [1] = target: T1, 5-Helix (HIV-1); test: SPR (Biacore)
T1 construct: also called HIV-1 gp41-derived 5-Helix; biotinylated 5-Helix

[2] = target: T2, gp41 of the HIV-1 HXB2 envelope (HIV-1 strain HXB2, UniProt P04578 512-856); test: cell-based or functional assay
[3] = target: T2, gp41 of the HIV-1 HXB2 envelope; test: cell-based or functional assay; remark: listed apart in the source
[4] = target: gp41 of the HIV-1 BaL envelope (HIV-1 strain BaL); test: cell-based or functional assay
[5] = target: gp41 of the HIV-1 89.6 envelope (HIV-1 strain 89.6); test: cell-based or functional assay
[6] = target: gp41 of the HIV-1 MN-1 envelope (HIV-1 strain MN-1, UniProt P05877 514-856); test: cell-based or functional assay
[7] = target: gp41 of the HIV-1 NL4-3 envelope (HIV-1 strain NL4-3); test: cell-based or functional assay
[8] = target: gp41 of the HIV-1 BaL envelope (HIV-1 strain BaL); test: cell-based or functional assay; remark: listed apart in the source
5-Helix [9] = target: T1, 5-Helix; test: phage ELISA on biotinylated peptide captured on streptavidin plates

Row | Binder | Kd (5-Helix [1]) [nM] | koff (5-Helix [1]) [s⁻¹] | kon (5-Helix [1]) [M⁻¹ s⁻¹] | IC50, single cycle infectivity assay against HIV-HXB2 [2] [nM] | D5 IgG IC50 (nM), single cycle infectivity assay [3] [nM] | D5 IgG IC50 (nM), single cycle infectivity assay [4] [nM] | D5 IgG IC50 (nM), single cycle infectivity assay [5] [nM] | D5 IgG IC50 (nM), single cycle infectivity assay [6] [nM] | D5 IgG IC50 (nM), single cycle infectivity assay [7] [nM] | IC50 (printed TC50), single cycle infectivity assay against HIV-HXB2 [2] [nM] | IC50, single cycle infectivity assay [2] | IC50, single cycle infectivity assay [8] | binding result (5-Helix [9])
1 | B1 | 0.26 | 0.0001 | 390000 | 261 | 310 | 93 | 1750 | 393 | 226 |  |  |  | 
2 | B2 |  |  |  |  |  |  |  |  |  | 238 | 320 nM and 8 ug/ml | 600 nM and 15 ug/ml | binds
3 | B3 |  |  |  |  |  |  |  |  |  |  |  |  | binds
